This note sets out measurements from patent US20240368275A1 (ELPIS BIOPHARMACEUTICALS, published 2024).

The Kd is the constant that tells how readily two partners part at equilibrium. By koff is commonly meant the rate constant with which the complex falls apart. For orientation: kon means a measure of how fast the partners come together. Usually EC50 stands for the concentration giving half of the maximal effect.

For assay [1], the target named is T1, human Nectin4-HIS tagged recombinant protein (human, UniProt Q96NY8 32-349).
T1 construct: also called hNectin4-HIS; Nectin4 HIS tagged protein; not shown: HIS tag
T1 sequence (looked up): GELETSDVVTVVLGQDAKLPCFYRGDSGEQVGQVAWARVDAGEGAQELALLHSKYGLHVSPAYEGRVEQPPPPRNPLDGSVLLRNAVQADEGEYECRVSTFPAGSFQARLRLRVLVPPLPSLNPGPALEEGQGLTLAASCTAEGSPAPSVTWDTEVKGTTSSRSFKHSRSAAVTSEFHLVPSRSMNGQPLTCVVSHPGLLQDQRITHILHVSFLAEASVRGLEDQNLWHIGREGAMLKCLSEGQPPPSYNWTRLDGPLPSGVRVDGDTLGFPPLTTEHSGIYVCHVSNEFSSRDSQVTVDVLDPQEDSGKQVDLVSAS
Description: SPR Biacore T200, bispecific captured on Protein A chip, hNectin4-HIS injected. As for the experimental part:
(§1) The assay was run with Biacore T200 control software version 2.0. For each cycle, 1 ug/mL of anti-hNectin4/CD3 antibody was captured for 60 seconds at flow rate of 10 ul/min on flow cell 2 in 1×HBSP buffer on Protein A sensor chip. 2-fold serial diluted CD3E-HIS or hNectin4-HIS tagged protein was injected onto both reference flow cell 1 and anti-Nectin4/CD3 bispecific captured flow cell 2 for 150 seconds at flow rate of 30 ul/mins followed by wash for 300 seconds. The flow cells were then regenerated with Glycine pH2 for 60 seconds at flow rate of 30 ul/mins. 8 concentration points from 100 nM-0 nM (CD3E-HIS) or 300 nM-0 nM (Nectin4-HIS) was assayed per anti-Nectin4 IgG in a 96 well plate. The kinetics of Anti-Nectin4/CD3 bispecific binding to CD3E and Nectin4 proteins was analyzed with Biacore T200 evaluation software version 3.0. The specific binding response unit was derived from subtraction of binding to reference flow cell 1 from antibody captured flow cell 2. Table 10 below listed the kinetics results. ND means not determined. NA means data not available.
On the technique in general: Surface plasmon resonance follows binding to a sensor surface in real time, without labels.

In assay [2] the target is T2, full-length human Nectin4 with C-terminal flag and Myc tags on CHO cells (human, UniProt Q96NY8 32-510).
T2 construct: whole, on cells; also called Nectin4/CHO; CHO/Nectin4; not shown: C-terminal flag and Myc tags of pCMV6-Entry vector
T2 sequence (looked up): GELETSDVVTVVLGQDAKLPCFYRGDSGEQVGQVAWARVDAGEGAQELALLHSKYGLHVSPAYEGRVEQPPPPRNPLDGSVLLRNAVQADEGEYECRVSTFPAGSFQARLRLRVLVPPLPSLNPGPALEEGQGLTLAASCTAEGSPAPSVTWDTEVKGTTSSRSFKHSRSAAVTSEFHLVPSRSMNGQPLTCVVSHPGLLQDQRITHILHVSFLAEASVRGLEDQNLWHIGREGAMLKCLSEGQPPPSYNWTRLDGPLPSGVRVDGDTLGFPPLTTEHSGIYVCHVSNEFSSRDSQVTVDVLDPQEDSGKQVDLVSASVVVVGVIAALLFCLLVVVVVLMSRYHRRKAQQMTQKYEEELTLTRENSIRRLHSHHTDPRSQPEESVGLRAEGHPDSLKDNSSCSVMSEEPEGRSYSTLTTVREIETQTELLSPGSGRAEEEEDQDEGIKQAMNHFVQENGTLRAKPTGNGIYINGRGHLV
Description: flow cytometry on CHO/Nectin4 cells. Here is the method:
Nectin4/CHO Nectin4 cells were plated at 100,000 cells/well in a 96-well plate in 50 μL of full media. Cells were rested 1 hour at 37° C. Anti-Nectin4/CD3 was 3-fold serial titrated from 50 nM. 50 μL was added to the cells and incubated for 1 hours with shaking. Samples were washed one time with flow buffer. […] Samples were washed once with flow buffer. Samples were stained with 100 uL Zombie Fixable Viability Dyes (1:800 dilution) per well and incubated in dark at room temperature for 30 mins. Samples were spun down at 1200 rpm for 5 minutes and washed once with 200 uL flow buffer. Reconstituted samples in 200 uL of flow buffer and read on Attune NxT cytometer. EC₅₀ values for Nectin4 Binding were determined using Prism software.

The target in assay [3] is T3, Nectin4 on Nectin4 positive cancer cell lines (T47D, HT1376, HCC1500, HT-29) (human, UniProt Q96NY8 32-510).
T3 sequence (looked up): T2 sequence (looked up)
Description: cell-based or functional assay.

Assay [4] has as its target T3, Nectin4 on Nectin4 positive cancer cell …. Description: flow cytometry on HT1376 cells. A general note: Flow cytometry measures light scatter and fluorescence of single cells or particles in a stream.
The target is the same in assay [5]. Description: cell-based or functional assay. This is another data set of the same source.
Assay [6] deals with T4, CD3 on Jurkat cells (UniProt P07766 23-207, limits assumed).
T4 construct: whole, on cells; the whole CD3/TCR complex stands on the cells; also called Jurkat CD3
T4 sequence (P07766 23-207 limits assumed): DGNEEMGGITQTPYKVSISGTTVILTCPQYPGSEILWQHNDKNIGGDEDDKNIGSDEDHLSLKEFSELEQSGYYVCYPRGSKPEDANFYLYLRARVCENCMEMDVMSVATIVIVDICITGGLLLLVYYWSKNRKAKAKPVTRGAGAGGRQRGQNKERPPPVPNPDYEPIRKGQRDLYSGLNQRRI
Description: flow cytometry on Jurkat cells. Here is the method:
(§2) Jurkat cells were plated at 100,000 cells/well in a 96-well plate with 50 μL of full media. Anti-Nectin4/CD3 antibodies were 3-fold serial titrated from 20 nM. 50 μL was added to the cells and incubated for 1 hours at room temperature with shaking. Samples were washed one time with flow buffer. […] Samples were washed once with flow buffer. Samples were stained with 100 uL Zombie Fixable Viability Dyes at 1:800 dilution per well and incubated in dark at room temperature for 30 mins. Samples were spun down at 1300 rpm for 5 minutes and washed once with 200 uL flow buffer. Reconstituted samples in 200 uL of flow buffer and read on Attune NxT cytometer. EC50 values for CD3 binding were calculated using Prism 8.1 software.

Assay [7] has as its target T4, CD3 on Jurkat cells. Description: cell-based or functional assay.
Assay [8] deals with T5, human CD3E HIS tagged protein (human, UniProt P07766 23-126).
T5 construct: not shown: HIS tag
T5 sequence (P07766 23-126 limits assumed): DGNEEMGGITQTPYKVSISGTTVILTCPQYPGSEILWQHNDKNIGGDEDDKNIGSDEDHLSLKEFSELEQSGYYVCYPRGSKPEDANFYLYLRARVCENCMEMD
Description: SPR Biacore T200, bispecific captured on Protein A chip, CD3E-HIS injected. As for the experimental part: as §1

Assay [9] deals with T1, human Nectin4-HIS tagged recombinant …. Description: ELISA, coated Nectin4 HIS tagged protein, bispecific titrated, anti-Human HRP. As for the experimental part:
(§3) An ELISA assay was developed to determine the EC₅₀ of anti-Nectin4/CD3 bispecific antibodies. Briefly, 384 well plate was immobilized with human CD3E or Nectin4 HIS tagged protein at final concentration of 2 ug/mL in 1×PBS in total volume of 25 uL per well. The plate was incubated overnight at 4° C. followed by blocking with 80 uL of superblock per well for 1 hour. Purified anti-Nectin4/CD3 was 3-fold serial titrated from 100 nM. 25 uL was added to human Nectin4/CD3 immobilized wells and incubated for 1 hour with shaking. The CD3E or Nectin4 binding was detected by adding 25 uL of anti-Human HRP diluted at 1:10000 in 1×PBST. In between each step, the plate was washed 3 times with […] in a plate washer. The plate was then developed with 20 ul of TMB substrate for 5 mins and stopped by adding 20 ul of 2N sulfuric acid. The plate was read at OD450 nm Biotek plate reader and then plotted in Prism 8.1 software to calculate EC50.
In general terms: In an ELISA, binding on a coated surface is turned into a signal by an enzyme label.

The target in assay [10] is T3, Nectin4 on Nectin4 positive cancer cell …. Description: flow cytometry on T47D cells.
Assay [11] concerns the target T4, CD3 on Jurkat cells. Description: flow cytometry on Jurkat cells. Here is the method:
as §2
Similar methods of above mentioned were used to measure the binding activities of anti-Nectin4/CD3/IL-2 complexes to CHO/Nectin4 and Jurkat cells, respectively.
The source holds these as a separate data set.

For assay [12], the target named is T5, human CD3E HIS tagged protein. Description: ELISA, coated human CD3E HIS tagged protein, bispecific titrated, anti-Human HRP. Here is the method:
as §3

Read-outs that look alike come from different tables or passages of the source.

B1: EP458/EP378/EP289 anti-Nectin4/CD3 bispecific antibody (bispecific antibody)
heavy 1: EVQLVQSGAEVKKPGASVKVSCKASGYTFTGYYMHWVRQAPGQGLEWMGRINPNSGGTNYAQKFQGRVTMTRDTSISTAYMELSGLRSDDTAVYFCARVTYNIGWYIDYWGQGTLVTVSSASTKGPSVFPLAPSSKSTSGGTAALGCLVKDYFPEPVTVSWNSGALTSGVHTFPAVLQSSGLYSLSSVVTVPSSSLGTQTYICNVNHKPSNTKVDKKVEPKSCDGGGGSGGGGSEVQLVESGGGLVQPGGSLRLSCAASGFTFSTYAMNWVRQAPGKGLEWVGRIRSKYNNYATYYADSVKGRFTISRDDSKNTLYLQMNSLRAEDTAVYYCVRHGNFGDSYVSWFAYWGQGTLVTVSSGGGGSGGGGSGGGGSGGGGSQAVVTQEPSLTVSPGGTVTLTCGSSTGAVTTSNYANWVQQKPGKSPRGLIGGTNKRAPGVPARFSGSLLGGKAALTISGAQPEDEADYYCALWYSNHWVFGGGTKLTVLEPKSCDKTHTCPPCPAPEAAGGPSVFLFPPKPKDTLMISRTPEVTCVVVDVSHEDPEVKFNWYVDGVEVHNAKTKPREEQYNSTYRVVSVLTVLHQDWLNGKEYKCKVSNKALGAPIEKTISKAKGQPREPQVCTLPPSRDELTKNQVSLSCAVKGFYPSDIAVEWESNGQPENNYKTTPPVLDSDGSFKLVSKLTVDKSRWQQGNVFSCSVMHEALHNHYTQKSLSLSPGK
heavy 2: not shown
light: QAVVTQPPSVSVAPGKTATITCGGNNIGSKGVHWYQQKPGQAPVLVIYYDTDRPSGIPERLSGSNSGNTATLTISRVEAGDEADYYCQVWDSSSDHPVFGGGTKLTVLGQPKANPTVTLFPPSSEELQANKATLVCLISDFYPGAVTVAWKADGSPVKAGVETTKPSKQSNNKYAASSYLSLTPEQWKSHRSYSCQVTHEGSTVEKTVAPTECS
notes: Bivalent for Nectin4: B09 heavy chain with sp34 scFv between CH1 and hinge, hole (EP458); B09 heavy chain knob (EP378); light chain EP289 pairs with both; also called EP458/378/289
As to B1, the Kd was determined as 3.67 nM in assay [1] and 3.26 nM in [8]. For the same molecule, the koff in [1] came to 0.000472 s⁻¹; in [8], 0.000739 s⁻¹. The kon stood at 129000 M⁻¹ s⁻¹ in assay [1] and 227000 M⁻¹ s⁻¹ in [8]. Also, the EC50 in [2] is 0.146 nM; in [4], 0.14 nM; with CD3 on Jurkat cells [6], 4.7 nM; in assay [9] it was 0.21 nM; in assay [10], 0.044 nM; with CD3 on Jurkat cells [11], 4.37 nM. In [12], this molecule registered an EC50 of 0.011 nM. The “EC50 Values in CTL Assay Against PBMC” value in assay [3] was 0.0014 nM. Moreover, the “EC50 Values in CTL Assay Against T47D Cancer Cells (PBMC)” value in [5] worked out at 0.0047 nM. Besides, the “EC50 Values in CTL Assay Against T47D Cancer Cells (T cell)” value in assay [5] came to 0.0064 nM. Also, in the assay with CD3 on Jurkat cells [7], the “NFAT reporter EC50” value was 0.0004 nM.
